Test results: the Human Domainome abundance scans (Beltran et al. 2025)
± gives the uncertainty stated by the source.

B1: Chromodomain-helicase-DNA-binding protein 4, residues 623 to 675; numbered along this chain, Q14839 (parent)
chain: MIHRILNHSVDKKGHVHYLIKWRDLPYDQASWESEDVEIQDYDLFKQSYWNHR

Variants of: B1
Assay: abundance fitness (aPCA) (normalised: wild type 0, dead -1); higher = more abundant; growth selection in yeast, the domain comes from the species named
Conditions: Homo sapiens

| Variant | abundance fitness |
| --- | --- |
| R53N | -0.313 ± 0.48 |
| R53S | -0.141 ± 0.19 |
| R53W | -0.044 ± 0.16 |
| R53K | -0.22 ± 0.22 |
| R53C | -0.086 ± 0.21 |
| R53P | -0.481 ± 0.28 |
| R53E | -0.189 ± 0.25 |
| R53H | -0.185 ± 0.3 |
| R53Q | 0.025 ± 0.27 |
| R53L | -0.104 ± 0.21 |
| R53D | -0.161 ± 0.26 |
| R53T | -0.221 ± 0.18 |
| R53V | -0.09 ± 0.14 |
| F45C | -0.306 ± 0.11 |
| F45T | -0.64 ± 0.12 |
| F45V | -0.616 ± 0.1 |
| F45I | -0.423 ± 0.085 |
| F45R | -0.757 ± 0.099 |
| F45H | 0.119 ± 0.09 |
| F45Q | -0.71 ± 0.16 |
| F45G | -0.856 ± 0.12 |
| F45D | -0.568 ± 0.12 |
| F45M | -0.283 ± 0.13 |
| F45N | -0.627 ± 0.12 |

| Variant | abundance fitness |
| --- | --- |
| F45A | -0.013 ± 0.085 |
| F45W | -0.279 ± 0.13 |
| F45S | -0.444 ± 0.077 |
| F45K | -0.391 ± 0.15 |
| F45P | -0.857 ± 0.11 |
| F45L | -0.388 ± 0.08 |
| F45E | -0.735 ± 0.28 |
| N51V | -0.341 ± 0.1 |
| N51R | 0.105 ± 0.089 |
| N51K | -0.167 ± 0.13 |
| N51S | -0.079 ± 0.1 |
| N51A | 0.014 ± 0.1 |
| N51Y | -0.267 ± 0.21 |
| N51D | 0.01 ± 0.16 |
| N51M | 0.01 ± 0.12 |
| N51F | -0.11 ± 0.2 |
| N51C | -0.428 ± 0.15 |
| N51I | -0.564 ± 0.23 |
| N51L | -0.194 ± 0.089 |
| N51T | 0.037 ± 0.13 |
| N51W | -0.45 ± 0.12 |
| N51Q | 0.004 ± 0.14 |
| N51H | -0.23 ± 0.14 |
| W50Q | -0.959 ± 0.27 |

| Variant | abundance fitness |
| --- | --- |
| W50D | -1.23 ± 0.26 |
| W50S | -0.653 ± 0.11 |
| W50N | -0.766 ± 0.24 |
| W50H | -0.779 ± 0.26 |
| W50F | -0.861 ± 0.17 |
| W50Y | -0.554 ± 0.25 |
| W50C | -0.793 ± 0.12 |
| W50K | -0.511 ± 0.17 |
| W50E | -0.879 ± 0.17 |
| W50G | -0.813 ± 0.083 |
| W50I | -0.813 ± 0.21 |
| W50P | -0.824 ± 0.19 |
| W50T | -0.733 ± 0.17 |
| W50A | -0.808 ± 0.13 |
| W50R | -0.725 ± 0.089 |
| W50V | -0.783 ± 0.099 |
| W50L | -0.811 ± 0.11 |
| H52V | -0.016 ± 0.11 |
| H52G | 0.022 ± 0.082 |
| H52P | -0.363 ± 0.15 |
| H52E | 0.139 ± 0.16 |
| H52I | -0.29 ± 0.15 |
| H52R | 0.058 ± 0.08 |
| H52T | 0.185 ± 0.14 |

| Variant | abundance fitness |
| --- | --- |
| H52N | 0.023 ± 0.18 |
| H52L | -0.017 ± 0.13 |
| H52K | 0.088 ± 0.18 |
| H52M | -0.18 ± 0.13 |
| H52C | -0.103 ± 0.13 |
| H52Y | -0.254 ± 0.12 |
| H52S | 0.106 ± 0.1 |
| H52D | -0.177 ± 0.15 |
| Y49M | -0.747 ± 0.13 |
| Y49G | -0.811 ± 0.1 |
| Y49A | -0.783 ± 0.12 |
| Y49V | -0.877 ± 0.1 |
| Y49R | -1 ± 0.13 |
| Y49W | -0.951 ± 0.15 |
| Y49T | -0.916 ± 0.11 |
| Y49I | -1.13 ± 0.24 |
| Y49S | -0.953 ± 0.13 |
| Y49C | -1.01 ± 0.18 |
| Y49Q | -0.997 ± 0.21 |
| Y49K | -0.658 ± 0.15 |
| Y49P | -0.696 ± 0.15 |
| Y49L | -0.751 ± 0.12 |
| Y49F | -0.7 ± 0.18 |
| Q47L | -0.374 ± 0.094 |

| Variant | abundance fitness |
| --- | --- |
| Q47W | -0.475 ± 0.11 |
| Q47M | -0.452 ± 0.14 |
| Q47K | 0.239 ± 0.12 |
| Q47N | 0.087 ± 0.11 |
| Q47F | -0.318 ± 0.13 |
| Q47D | -0.289 ± 0.11 |
| Q47I | 0.132 ± 0.12 |
| Q47G | -0.483 ± 0.088 |
| Q47R | -0.084 ± 0.078 |
| Q47H | -0.051 ± 0.14 |
| Q47T | 0.022 ± 0.099 |
| Q47S | -0.05 ± 0.081 |
| Q47A | -0.114 ± 0.1 |
| Q47C | -0.423 ± 0.096 |
| Q47E | -0.052 ± 0.11 |
| Q47Y | -0.343 ± 0.16 |
| Q47P | -0.804 ± 0.16 |
| Y42L | -0.592 ± 0.31 |
| Y42K | -0.767 ± 0.49 |
| S48M | 0.016 ± 0.091 |
| S48T | -0.124 ± 0.096 |
| S48W | -0.412 ± 0.1 |
| S48K | 0.043 ± 0.097 |
| S48C | -0.083 ± 0.12 |

| Variant | abundance fitness |
| --- | --- |
| S48R | 0.14 ± 0.075 |
| S48V | -0.011 ± 0.075 |
| S48H | 0.119 ± 0.12 |
| S48D | 0.043 ± 0.12 |
| S48Y | 0.093 ± 0.13 |
| S48G | -0.206 ± 0.087 |
| S48L | -0.01 ± 0.076 |
| S48F | -0.236 ± 0.11 |
| S48A | 0.07 ± 0.078 |
| S48E | 0.067 ± 0.087 |
| S48Q | -0.053 ± 0.1 |
| S48P | -0.628 ± 0.13 |
| K46N | -0.886 ± 0.16 |
| K46H | -0.909 ± 0.19 |
| K46W | -0.856 ± 0.15 |
| K46Y | -0.856 ± 0.15 |
| K46S | -0.838 ± 0.1 |
| K46R | -0.796 ± 0.09 |
| K46D | -0.886 ± 0.16 |
| K46P | -0.875 ± 0.13 |
| K46A | -0.898 ± 0.16 |
| K46T | -0.748 ± 0.13 |
| K46L | -0.593 ± 0.089 |
| K46E | -0.734 ± 0.16 |

| Variant | abundance fitness |
| --- | --- |
| K46G | -0.846 ± 0.099 |
| K46Q | -0.485 ± 0.1 |
| K46I | -0.465 ± 0.14 |
| K46F | -0.917 ± 0.17 |
| D43I | -0.862 ± 0.25 |
| D43W | -0.219 ± 0.13 |
| D43L | -0.423 ± 0.084 |
| D43Q | -0.047 ± 0.11 |
| D43A | -0.205 ± 0.081 |
| D43G | -0.147 ± 0.092 |
| D43N | -0.161 ± 0.12 |
| D43T | -0.367 ± 0.12 |
| D43C | -0.236 ± 0.16 |
| D43R | -0.577 ± 0.1 |
| D43K | -0.456 ± 0.14 |
| D43E | 0.099 ± 0.1 |
| D43M | -0.262 ± 0.13 |
| D43F | -0.394 ± 0.16 |
| D43Y | -0.253 ± 0.15 |
| D43S | -0.307 ± 0.088 |
| D43H | -0.186 ± 0.13 |
| D41Y | -0.431 ± 0.13 |
| D41W | -0.529 ± 0.12 |
